Source: patent US20070167369A1, “Novel use of isolated polypeptide comprising four FAS-1 domains, EM1 domain and RGD motif” (KYUNGPOOK NATIONAL UNIVERSITY INDUSTRY-ACADEMIC COOPERATION …, priority 2004, published 2007)

Key:
Format in all cases: cell-based, human
HUVECs [1] = experiment: Endothelial tube formation assay on Matrigel (Examples 9-1 and 11); conditions: Example 11; controls BSA or Nus protein
Method: First, 100 μl of Matrigel (Chemicon, International Inc, Temecula, Calif.) was added to each well of a 96-well plate and allowed to polymerize. HUVECs were suspended in medium at a density of 3×10^5 cells/ml, and 0.1 ml of the cell suspension was added to each well of the plate coated with Matrigel. At this time, 5 μM or 10 μM of the fas-1 domain (βig-h3 D-IV) prepared in Example 1 above was added together. A control was either treated with BSA or had no treatment. Thereafter, the cells were incubated at 37° C. for 16-18 hours. The cells were photographed, and endothelial tubes were counted and averaged.
For this purpose, the second fas-1 domain of βig-h3 (βig-h3 D-II) was prepared in the same manner as in Example 1-1 above. Since each domain of stabilin-II is insoluble, it was prepared in the form of soluble protein by cloning into the BamHI/XhoI sites of a Nus-conjugated pET43.1 vector (Novagen, USA). The prepared recombinant proteins were named “Nus-fas3” and “Nus-fas7”, respectively. A control to the second fas-1 domain of βig-h3 was treated with BSA, and a control to the fas-1 domain of stabilin-II was treated with a Nus protein. Thereafter, an endothelial tube formation assay was performed in the same manner as in Example 9-1.

HUVECs [2] = experiment: Endothelial tube formation in Matrigel (Example 14)
Method: Matrigel (Chemicon, International Inc, Temecula, Calif.) was added (100 μl) into each well of a 96-well plate and polymerized for 30 minutes at 37° C. HUVECs were suspended in medium at a density of 3×10^5 cells/ml, and 0.1 ml of the cell suspension was pre-incubated with or without the indicated concentration of the truncated βig-h3, the fas-1 domain and Regenin for 40 min at 37° C., then seeded on the surface of the Matrigel. Cells were incubated for 6 to 10 hours at 37° C. The cells were then photographed, and branch points from 4 high-power fields (x200) were counted and averaged.

HUVEC = experiment: Adhesion of endothelial cells to vitronectin (Example 13-1)
Method: Flat-bottomed 96-well ELISA plates (Costar, Corning, Inc., NY) were incubated overnight at 4° C. with 5 μg/ml of vitronectin (Promega, Madison, Wis.) and blocked for 1 hour at room temperature with PBS containing 2% bovine serum albumin (BSA).
Primary human umbilical vein endothelial cells (HUVEC) were cultured at 37° C. in 5% CO2 in M199 medium supplemented with 20% fetal bovine serum. For all the experiments, HUVECs were used at passage 4 or less. HUVEC cells were suspended in medium at a density of 3×10^5 cells/ml, and 0.1 ml of the cell suspension was pre-incubated with or without the indicated concentration of the truncated βig-h3, the fas-1 domain and Regenin for 40 min at 37° C., then added to each well of the coated. After incubation for 5 to 10 minutes at 37° C., unattached cells were removed by rinsing with PBS. Attached cells were then incubated for 1 hour at 37° C. in 50 mM citrated buffer (pH 5.0) containing 3.75 mM p-nitrophenyl-N-acetyl-Dglycosamide and 0.25% Triton X-100. Enzyme activity was blocked by adding 50 mM glycine buffer (pH 10.4) containing 5 mM EDTA, and the absorbance was measured at 405 nm in a Bio-Rad model 550 microplate reader.

HUVECs [3] = experiment: Migration of endothelial cells to vitronectin, transwell (Example 13-2)
Method: Cell migration assays were done in transwell plates (8 μm pore size, Costar, Cambridge, Mass.). The undersurface of the membrane was coated with 5 μg/ml of vitronectin at 4° C. and blocked for 1 hour at room temperature with PBS containing 2% BSA. HUVECs were suspended in medium at a density of 3×10^5 cells/ml, and 0.1 ml of the cell suspension was pre-incubated with or without the indicated concentration of the truncated βig-h3, the fas-1 domain and Regenin for 40 min at 37° C., then added to the upper compartment of the filter. Cells were allowed to migrate for 4 to 6 hours at 37° C. The filters were fixed with 8% glutaraldehyde and stained with crystal violet, and non-migrating cells on the upper surface of the filter were removed by wiping with a cotton swab. The extent of cell migration was determined by light microscopy, and within each well, counting was done in nine randomly selected microscopic high power fields (x200).

Molecule | inhibition of endothelial tube formation by various fas-1 domains (HUVECs [1]) | 70%-inhibition of tube formation observed at (HUVECs [2]; concentration giving 70% inhibition) | inhibition of tube formation (HUVECs [2]; various concentrations, 6 to 10 hours) | inhibition of adhesion to vitronectin (HUVEC; 500 nM) | inhibition of adhesion to vitronectin (HUVEC; various concentrations, vitronectin 5 μg/ml) | IC50 (HUVECs [3]; read-out: half-inhibition of migration toward vitronectin observed at) | inhibition of migration to vitronectin (HUVECs [3]; various concentrations, 4 to 6 hours)
βig-h3 D-II: recombinant protein containing the second fas-1 domain of human βig-h3 (SEQ ID NO: 62) (protein, listed as Homo sapiens) NIQQIIEIEDTFETLRAAVAASGLNTMLEGNGQYTLLAPTNEAFEKIPSETLNRILGDPEALRDLLNNHILKSAMCAEAIVAGLSVETLEGTTLEVGCSGDMLTINGKAIISNKDILATNGVIHYIDELLI | completely inhibited | – | – | – | – | – | –
Regenin: size control of truncated βig-h3: protein that expresses four copies of the fourth fas-1 domain (protein) MGTVMDVLKGDNRFSMLVAAIQSAGLTETLNREGVYTVFAPTNEAFRALPPRERSRLLGDAKELANILKYHIGDEILVSGGIGALVRLKSLQGDKLEVSLKNNVVSVNKEPVAEPDIMATNGVVHVITNVLMGTVMDVLKGDNRFSMLVAAIQSAGLTETLNREGVYTVFAPTNEAFRALPPRERSRLLGDAKELANILKYHIGDEILVSGGIGALVRLKSLQGDKLEVSLKNNVVSVNKEPVAEPDIMATNGVVHVITNVLMGTVMDVLKGDNRFSMLVAAIQSAGLTETLNREGVYTVFAPTNEAFRALPPRERSRLLGDAKELANILKYHIGDEILVSGGIGALVRLKSLQGDKLEVSLKNNVVSVNKEPVAEPDIMATNGVVHVITNVLMGTVMDVLKGDNRFSMLVAAIQSAGLTETLNREGVYTVFAPTNEAFRALPPRERSRLLGDAKELANILKYHIGDEILVSGGIGALVRLKSLQGDKLEVSLKNNVVSVNKEPVAEPDIMATNGVVHVITNVL | – | 5 µM | dose-dependent inhibition | ineffective | dose-dependent inhibition | 5 µM | dose-dependent inhibition
